In US20230365703A1 (SHANGHAI LYN CREST ENTERPRISE MANAGEMENT, published 2023):
Blank lines part the entries; values can stand above or below the binder they belong to.

Experiments:
[1] = target: T1, IL12 receptors on H_IL12 Reporter 293 cells (UniProt P42701 24-662; Q99665 24-862, limits assumed); experiment: cell-based or functional assay
[2] = target: T1, IL12 receptors on H_IL12 Reporter 293 …; experiment: cell-based or functional assay; remark: listed apart in the source
[3] = target: T2, GPC3 on liver cancer cells (HepG2, HuH-7) (UniProt P51654 25-554); experiment: flow cytometry on HepG2 cells, Alexa Fluor 488 anti-human IgG; table under the plot prints no unit, unit taken from the axis Con.(nM)
T2 construct: whole, on cells; also called GPC3 antigen

[4] = target: CD47 on CD47-transfected CHO-K1 cells (Homo sapiens (Human), UniProt Q08722 19-323); experiment: flow cytometry on CD47-transfected CHO-K1 cells (CD38-/CD47+), anti-human IgG-FITC detection

T1 sequence (Q99665 24-862 limits assumed, chain 2 of 2, other chains not shown): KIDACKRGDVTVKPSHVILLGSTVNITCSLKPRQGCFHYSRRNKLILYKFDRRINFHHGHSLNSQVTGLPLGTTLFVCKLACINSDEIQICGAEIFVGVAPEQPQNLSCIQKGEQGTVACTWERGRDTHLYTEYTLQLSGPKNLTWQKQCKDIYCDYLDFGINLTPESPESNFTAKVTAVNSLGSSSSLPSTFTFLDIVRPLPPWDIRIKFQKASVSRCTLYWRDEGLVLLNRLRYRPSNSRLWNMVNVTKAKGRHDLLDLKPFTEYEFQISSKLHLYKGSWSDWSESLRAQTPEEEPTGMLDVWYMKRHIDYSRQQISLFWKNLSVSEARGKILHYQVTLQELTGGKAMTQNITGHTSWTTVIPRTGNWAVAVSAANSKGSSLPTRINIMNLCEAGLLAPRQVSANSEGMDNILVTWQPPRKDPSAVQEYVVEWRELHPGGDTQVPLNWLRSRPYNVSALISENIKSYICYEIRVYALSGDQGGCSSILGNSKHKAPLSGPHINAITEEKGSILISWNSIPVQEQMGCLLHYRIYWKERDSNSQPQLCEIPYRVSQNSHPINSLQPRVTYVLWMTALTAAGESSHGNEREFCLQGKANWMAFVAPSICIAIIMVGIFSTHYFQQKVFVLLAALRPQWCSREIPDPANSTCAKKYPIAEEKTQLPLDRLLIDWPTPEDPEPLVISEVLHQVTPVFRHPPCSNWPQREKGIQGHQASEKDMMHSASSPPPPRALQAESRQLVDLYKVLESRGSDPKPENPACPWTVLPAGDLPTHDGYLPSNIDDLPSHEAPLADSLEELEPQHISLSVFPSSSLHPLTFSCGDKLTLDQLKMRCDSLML

EC50 (read off the curve), H_IL12 Reporter 293 cells, One-Glo signal, LCB-018 with IL12B after isotype pre-incubation (TIGIT free) [1]: ~4 nM | EC50 (read off the curve), H_IL12 Reporter 293 cells, One-Glo signal, LCB-018 with IL12B after pre-block of TIGIT with 200 nM Tiragolumab [1]: ~10 nM | EC50 on H_IL12 Reporter 293 cells (One-Glo signal; called binding affinity by the filing) [2]: 30 nM | fold weaker than the IL12A and IL12B complex on H_IL12 Reporter 293 cells [2]: ~500 times
B1: LCB-018 (bispecific antibody)
heavy: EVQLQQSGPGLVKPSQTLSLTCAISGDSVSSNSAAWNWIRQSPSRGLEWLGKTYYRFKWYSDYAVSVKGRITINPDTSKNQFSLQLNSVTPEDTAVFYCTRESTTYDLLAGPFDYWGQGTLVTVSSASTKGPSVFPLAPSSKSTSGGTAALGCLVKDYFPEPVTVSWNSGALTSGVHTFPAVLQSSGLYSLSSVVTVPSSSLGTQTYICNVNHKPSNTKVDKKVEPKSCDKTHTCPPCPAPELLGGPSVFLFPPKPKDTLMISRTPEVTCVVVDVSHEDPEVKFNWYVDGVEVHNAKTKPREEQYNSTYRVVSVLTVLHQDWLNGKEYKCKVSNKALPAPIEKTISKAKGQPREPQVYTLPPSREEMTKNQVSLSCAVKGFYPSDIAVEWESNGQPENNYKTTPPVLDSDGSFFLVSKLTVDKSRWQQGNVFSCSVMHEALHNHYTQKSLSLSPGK
chain 1: not shown
chain 2: WELKKDVYVVELDWYPDAPGEMVVLTCDTPEEDGITWTLDQSSEVLGSGKTLTIQVKEFGDAGQYTCHKGGEVLSHSLLLLHKKEDGIWSTDILKDQKEPKNKTFLRCEAKNYSGRFTCWWLTTISTDLTFSVKSSRGSSDPQGVTCGAATLSAERVRGDNKEYEYSVECQEDSACPAAEESLPIEVMVDAVHKLKYENYTSSFFIRDIIKPDPPKNLQLKPLKNSRQVEVSWEYPDTWSTPHSYFSLTFCVQVQGKSKREKKDRVFTDKTSATVICRKNASISVRAQDRYYSSSWSEWASVPCS

EC50 [3]: 0.529 nM
B2: Anti-GPC3 monoclonal antibody codrituzumab (antibody, human IgG1, kappa, V domains shown)
VH: QVQLVQSGAEVKKPGASVKVSCKASGYTFTDYEMHWVRQAPGQGLEWMGALDPKTGDTAYSQKFKGRVTLTADKSTSTAYMELSSLTSEDTAVYYCTRFYSYTYWGQGTLVTVSS
VL: DVVMTQSPLSLPVTPGEPASISCRSSQSLVHSNRNTYLHWYLQKPGQSPQLLIYKVSNRFSGVPDRFSGSGSGTDFTLKISRVEAEDVGVYYCSQNTHVPPTFGQGTKLEIKR
notes: also called GC33; anti-GPC3 mAb

binding result [4]: no binding
B3: Anti-CD38 monoclonal antibody Felzartamab (antibody, human IgG1, lambda, V domains shown)
VH: QVQLVESGGGLVQPGGSLRLSCAASGFTFSSYYMNWVRQAPGKGLEWVSGISGDPSNTYYADSVKGRFTISRDNSKNTLYLQMNSLRAEDTAVYYCARDLPLVYTGFAYWGQGTLVTVSS
VL: DIELTQPPSVSVAPGQTARISCSGDNLRHYYVYWYQQKPGQAPVLVIYGDSKRPSGIPERFSGSNSGNTATLTISGTQAEDEADYYCQTYTGGASLVFGGGTKLTVLG
